Experimental data from patent publication US20230391826A1 (SANFORD BURNHAM PREBYS MEDICAL DISCOVERY INSTITUTE, published 2023).
Where no end group is shown, it is not given here. [ ]: non-standard residue; d: D form. The star is where a group is joined. Biotin = O=C1N[C@H]2[C@H](CS[C@H]2CCCCC(=O)*)N1; βAla = NCCC(=O)O; Cam = NC(=O)C*

B1: linear dimer (head-to-tail) (peptide)
peptide: [βAla]WLAYPDSVPYRPKGGAWLAYPDSVPYRPK-NH2
modifications: N-terminus assumed
SMILES: CC(C)C[C@H](NC(=O)[C@H](Cc1c[nH]c2ccccc12)NC(=O)CCN)C(=O)N[C@@H](C)C(=O)N[C@@H](Cc1ccc(O)cc1)C(=O)N1CCC[C@H]1C(=O)N[C@@H](CC(=O)O)C(=O)N[C@@H](CO)C(=O)N[C@H](C(=O)N1CCC[C@H]1C(=O)N[C@@H](Cc1ccc(O)cc1)C(=O)N[C@@H](CCCNC(=N)N)C(=O)N1CCC[C@H]1C(=O)N[C@@H](CCCCN)C(=O)NCC(=O)NCC(=O)N[C@@H](C)C(=O)N[C@@H](Cc1c[nH]c2ccccc12)C(=O)N[C@@H](CC(C)C)C(=O)N[C@@H](C)C(=O)N[C@@H](Cc1ccc(O)cc1)C(=O)N1CCC[C@H]1C(=O)N[C@@H](CC(=O)O)C(=O)N[C@@H](CO)C(=O)N[C@H](C(=O)N1CCC[C@H]1C(=O)N[C@@H](Cc1ccc(O)cc1)C(=O)N[C@@H](CCCNC(=N)N)C(=O)N1CCC[C@H]1C(=O)N[C@@H](CCCCN)C(N)=O)C(C)C)C(C)C
B2: CGA-WLA-YRPKam dimer (N-ter) (peptide)
peptide: CGAWLAYPDSVPYRPK-NH2
modifications: also: homodimer: N-terminal Cys of two chains joined by disulfide
B3: βA-WLA-YRPKC dimer (C-ter) (peptide)
peptide: [βAla]WLAYPDSVPYRPKC
modifications: also: homodimer, disulfide at 15, other end not in the chain
notes: C-terminally disulfide-linked homodimer made from monomer (19*); also called dimer (2); dimeric peptide (2)
B4: Lys-linked dimer (C-ter) (peptide)
peptide 1: [βAla]WLAYPDSVPYRPKK
peptide 2: [βAla]WLAYPDSVPYRPK
modifications: also: bond at chain A 15 to a chain's C-terminus
B5: Click dimer (N-ter) (peptide)
peptide 1: KAWLAYPDSVPYRPK
peptide 2: XGAWLAYPDSVPYRPK
modifications: not fully specified; propargylglycine (Pra) at position 1, joined by a click linkage to KN3 of the other chain; C-terminal amide; azido-lysine (KN3) at position 1, joined by a click linkage to Pra of the other chain; C-terminal amide
B6: βA-WLA-YGSGC dimer (C-ter) (peptide)
peptide: [βAla]WLAYPDSVPYGSGC
modifications: also: homodimer, disulfide at 15, other end not in the chain
notes: C-terminally disulfide-linked homodimer made from monomer (9*); also called dimer (1); dimeric peptide (1)
B7: CGA-WLA-YR dimer (N-ter) (peptide)
peptide: CGAWLAYPDSVPYR
modifications: also: homodimer: N-terminal Cys of two chains joined by disulfide
notes: N-terminally disulfide-linked homodimer made from monomer (15*); also called dimer (4)
B8: CcamGA-WLA-YRPK-bio (peptide)
peptide: C(Cam)GAWLAYPDSVPYRPK(Biotin)
notes: also called monomer (10); monomeric peptide (10)
B9: YSA-GSGSK-bio (peptide)
peptide: YSAYPDSVPMMSGSGSK(Biotin)
notes: Previously identified monomer, included for comparison; also called monomer (2*); 2*

Molecular target: T1, EphA2 endogenously expressed on PC3 prostate cancer cells (UniProt P29317 24-976, limits assumed)
Assay: cell-based or functional assay

Binder | Blig (bias factor) | EC50 PY588 | Emax PY588 | IC50 PAKT
B1 | 0.62 | 0.49 nM | 0.61 normalized to ephrinA1-Fc | 0.12 nM
B2 | 0.36 | 0.12 nM | 0.8 normalized to ephrinA1-Fc | 0.043 nM
B3 | 1.28 | 2.6 nM | 0.39 normalized to ephrinA1-Fc | 0.22 nM
B4 | 0.79 | 2.4 nM | 0.37 normalized to ephrinA1-Fc | 0.63 nM
B5 | 0.93 | 0.22 nM | 0.71 normalized to ephrinA1-Fc | 0.024 nM

Molecular target: T2, EphA2 ligand binding domain (EphA2 LBD), residues 28-200 (UniProt P29317 28-200)
T2 construct: range 28-200; Expressed in E. coli; also called soluble EphA2 LBD; soluble monomeric EphA2 LBD
T2 sequence (P29317 other isoform, or with tags, fused parts or gaps limits assumed, form in doubt): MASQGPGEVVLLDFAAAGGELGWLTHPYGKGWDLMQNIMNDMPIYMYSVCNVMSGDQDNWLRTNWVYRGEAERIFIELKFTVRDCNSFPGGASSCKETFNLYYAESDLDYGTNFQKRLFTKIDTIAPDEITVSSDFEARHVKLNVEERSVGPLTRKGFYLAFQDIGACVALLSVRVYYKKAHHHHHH
Assay: ITC, soluble EphA2 LBD and peptide
Procedure: (§1) For ITC, all peptides are dissolved in DMSO and both the EphA2 LBD and the peptides are diluted to obtain a final buffer containing 9.5 mM HEPES, pH 7.9, 95 mM NaCl, and 5% DMSO. The experiments are carried out at 296 K (23° C.) using an ITC200 calorimeter (Microcal). Two-microliter aliquots of a peptide solution are injected into the cell containing 205 μL EphA2 LBD. 200-400 μM peptides are titrated into 20-40 μM EphA2 LBD. Experimental data are analyzed using the Origin software package (Microcal). The integrated values for the reaction heats are normalized to the amount of injected peptide after blank subtraction.

Binder | -TΔS | Kd | N (binding stoichiometry) | ΔG | ΔH
B6 | 68.2 kJ/mol | 2900 nM | 1.7 | -31.6 kJ/mol | -99.8 kJ/mol
B7 | 99 kJ/mol | 104 nM | 2 | -39.6 kJ/mol | -139 kJ/mol
B8 | 107 kJ/mol |  | 0.8 |  | -147 kJ/mol
B3 | 81.4 kJ/mol | 380 nM | 2 | -36.4 kJ/mol | -118 kJ/mol

Molecular target: T3, EphA2 extracellular domain fused to the Fc portion of an antibody (EphA2-Fc)
T3 construct: extracellular domain; Immobilized on the ELISA wells; also called immobilized EphA2
T3 sequence (P29317 whole entry, the tested form may be a part): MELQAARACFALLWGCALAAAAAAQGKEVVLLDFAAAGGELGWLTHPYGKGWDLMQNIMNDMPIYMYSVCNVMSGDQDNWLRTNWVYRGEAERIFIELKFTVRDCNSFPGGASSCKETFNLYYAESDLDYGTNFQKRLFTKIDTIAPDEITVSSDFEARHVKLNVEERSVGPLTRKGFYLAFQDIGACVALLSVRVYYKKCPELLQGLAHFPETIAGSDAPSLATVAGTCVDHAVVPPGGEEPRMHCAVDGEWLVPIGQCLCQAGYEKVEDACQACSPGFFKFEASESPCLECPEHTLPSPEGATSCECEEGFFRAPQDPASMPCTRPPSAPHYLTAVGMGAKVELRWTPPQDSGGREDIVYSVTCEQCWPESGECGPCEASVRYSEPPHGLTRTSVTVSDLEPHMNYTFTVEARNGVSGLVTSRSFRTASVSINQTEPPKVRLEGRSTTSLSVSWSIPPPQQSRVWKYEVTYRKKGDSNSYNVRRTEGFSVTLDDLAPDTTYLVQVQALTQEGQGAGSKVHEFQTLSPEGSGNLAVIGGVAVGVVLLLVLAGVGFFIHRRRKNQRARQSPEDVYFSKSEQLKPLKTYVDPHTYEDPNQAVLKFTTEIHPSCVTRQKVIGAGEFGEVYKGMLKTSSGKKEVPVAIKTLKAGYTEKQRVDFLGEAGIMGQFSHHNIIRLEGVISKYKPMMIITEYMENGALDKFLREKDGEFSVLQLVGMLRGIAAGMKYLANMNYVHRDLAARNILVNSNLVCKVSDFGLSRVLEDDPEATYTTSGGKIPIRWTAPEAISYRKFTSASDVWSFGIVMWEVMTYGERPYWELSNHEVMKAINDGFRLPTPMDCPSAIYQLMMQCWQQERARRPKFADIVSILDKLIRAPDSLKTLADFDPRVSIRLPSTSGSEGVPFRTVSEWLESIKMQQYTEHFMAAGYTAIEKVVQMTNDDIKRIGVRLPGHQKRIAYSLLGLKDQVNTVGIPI
Assay: ELISA, inhibition of ephrinA5-AP binding to immobilized EphA2-Fc; representative experiment, triplicates
Procedure: FIG. 1A-1C illustrates an example of Potency and selectivity of EphA2-targeting dimeric peptides. […] The graphs show averages ±SD from triplicate measurements from a representative experiment. […] The 10 nM peptide concentration is outlined in red. […] Values are normalized to ephrin binding without peptide. The graphs show averages and SDs from triplicate measurements (with each measurement shown as a dot).

Binder | IC50
B8 | 22 nM

Molecular target: T3, EphA2 extracellular domain fused to the …
Assay: ELISA, inhibition of ephrinA5-AP binding to immobilized EphA2-Fc

Binder | IC50
B6 | 71 nM
B7 | 7.9 nM
B3 | 0.5 nM

Molecular target: T2, EphA2 ligand binding domain (EphA2 …)
Assay: ITC, EphA2 LBD (200-250 µM) titrated into 10-12.5 µM peptide; single titration shown

Binder | Kd
B6 | 3760 nM

Molecular target: T1, EphA2 endogenously expressed on PC3 …
Assay: cell-based or functional assay
Remark: another data set of the same source

Binder | agonistic potency (pY588), fold lower than the other dimers with similar configuration
B6 | 10 to 60 fold
B7 | 10 to 60 fold

Molecular target: T1, EphA2 endogenously expressed on PC3 …
Assay: cell-based or functional assay
Remark: another data set of the same source

Binder | EC50 pAKT inhib | EC50 pY588 | Etop pAKT inhib | Etop pY588 | βlig (bias factor)
B1 | 90 pM | 0.73 nM | 0.87 | 0.76 normalized to ephrinA1-Fc | 0.62
B6 | 39 nM |  | 0.9 | 0.49 normalized to ephrinA1-Fc | 0.506
B7 | 0.53 nM |  | 0.9 | 0.94 normalized to ephrinA1-Fc | 0.47
B8 |  |  | 1.06 | 0.48 normalized to ephrinA1-Fc | 0.64
B2 | 80 pM | 0.36 nM | 0.97 | 0.98 normalized to ephrinA1-Fc | 0.51
B3 | 0.82 nM | 5.6 nM | 0.86 | 0.5 normalized to ephrinA1-Fc | 0.73
B4 | 0.42 nM | 2.6 nM | 1 | 0.46 normalized to ephrinA1-Fc | 0.79
B5 | 80 pM | 0.64 nM | 0.87 | 0.98 normalized to ephrinA1-Fc | 0.5

Molecular target: T2, EphA2 ligand binding domain (EphA2 …)
Assay: ITC, soluble EphA2 LBD and peptide
Remark: another data set of the same source

Binder | Kd | N (binding stoichiometry)
B6 | 2900 nM | 1.7
B7 | 104 nM | 2
B3 | 380 nM | 2

Molecular target: T2, EphA2 ligand binding domain (EphA2 …)
Assay: ITC, EphA2 LBD (200-250 µM) titrated into 10-12.5 µM peptide; single titration shown
Remark: another data set of the same source

Binder | Kd
B3 | 329 nM

Molecular target: T2, EphA2 ligand binding domain (EphA2 …)
Assay: as above
Remark: another data set of the same source

Binder | Kd
B7 | 103 nM

Molecular target: T3, EphA2 extracellular domain fused to the …
Assay: ELISA, inhibition of ephrinA5-AP binding to immobilized EphA2-Fc; representative experiment, triplicates
Remark: another data set of the same source

Binder | IC50
B6 | 67 nM
B7 | 6.7 nM
B3 | 0.47 nM

Molecular target: T2, EphA2 ligand binding domain (EphA2 …)
Assay: ITC, soluble EphA2 LBD and peptide
Remark: another data set of the same source
Procedure: as §1

Binder | Kd | N (binding stoichiometry)
B6 | 2900 nM | 1.7
B7 | 104 nM | 2
B8 |  | 0.8
B3 | 380 nM | 2

Molecular target: T3, EphA2 extracellular domain fused to the …
Assay: ELISA, inhibition of ephrinA5-AP binding to immobilized EphA2-Fc
Remark: another data set of the same source

Binder | IC50
B9 | 850 nM
B6 | 71 nM
B7 | 7.9 nM
B3 | 0.5 nM
